Source: publication PMC2896269 (The Journal of neuroscience : the official journal of the …, 2010)

Target: HA-neuroligin-1(+B) (UniProt Q62765 46-843)
Experiment: immunostaining of cells or tissue

HA-neuroligin-1(+B), sequence (Q62765 46-843): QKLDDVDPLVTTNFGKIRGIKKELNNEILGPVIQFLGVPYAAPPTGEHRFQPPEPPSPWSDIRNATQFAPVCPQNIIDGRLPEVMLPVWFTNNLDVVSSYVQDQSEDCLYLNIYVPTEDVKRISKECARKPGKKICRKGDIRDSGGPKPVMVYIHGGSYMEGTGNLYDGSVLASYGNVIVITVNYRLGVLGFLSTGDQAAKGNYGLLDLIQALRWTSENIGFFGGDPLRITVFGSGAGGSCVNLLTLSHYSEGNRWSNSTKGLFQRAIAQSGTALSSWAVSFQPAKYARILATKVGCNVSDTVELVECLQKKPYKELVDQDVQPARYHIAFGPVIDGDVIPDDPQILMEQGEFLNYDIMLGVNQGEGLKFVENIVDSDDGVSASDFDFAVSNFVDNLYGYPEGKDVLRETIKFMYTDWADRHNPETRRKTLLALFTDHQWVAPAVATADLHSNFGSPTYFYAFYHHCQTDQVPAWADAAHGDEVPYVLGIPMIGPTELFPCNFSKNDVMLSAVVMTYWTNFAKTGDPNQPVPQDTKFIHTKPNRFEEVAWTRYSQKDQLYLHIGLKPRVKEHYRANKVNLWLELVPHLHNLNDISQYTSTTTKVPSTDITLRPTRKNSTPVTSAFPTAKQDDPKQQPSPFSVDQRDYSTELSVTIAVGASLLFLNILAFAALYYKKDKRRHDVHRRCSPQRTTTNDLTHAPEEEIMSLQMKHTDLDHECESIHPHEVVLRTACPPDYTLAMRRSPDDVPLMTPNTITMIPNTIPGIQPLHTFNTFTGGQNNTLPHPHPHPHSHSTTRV

B1: Nrx1β(+S4)-Fc (Fc fusion)
chain: not shown
Work on B1 yielded a Kd of 26.9 nM.
